Data reported in patent US20170145086A1 (VISTERRA, published 2017).
Changes are numbered by the printed parent chain. Values belong to the binder of their own block, whether it stands above or below them.

What was measured:
[1] = target: human TNFα (TNFSF2; Adipogen) (human, UniProt P01375 85-233, limits assumed); experiment: indirect ELISA, cytokine coated
Protocol: (§1) Selected anti-APRIL antibodies were evaluated for potential cross-reactivity with other members of the TNFa superfamily (TNFSF) family of cytokines, including: human TNFα (TNFSF2; Adipogen), human […] (TNFSF4, Adipogen), human FasL (TNFSF6, Adipogen), human TRAIL (TNFSF10, Adipogen), human RANKL (TNFSF11; Adipogen), human Tweak (TNFSF12; Abcam), human and mouse BAFF (TNFSF13B, AB Biosciences and Adipogen, respectively), and human LIGHT (TNFSF14, Adipogen). These cytokines share variable degree of sequence as well as higher order structural homologies. Among them, BAFF appears to be the most closely related to APRIL, with 29% identity and 53% amino acid sequence similarity.
(§2) Binding was evaluated by an indirect ELISA protocol using similar methods described for evaluation of APRIL binding; cytokines were immobilized to ELISA plate at 50 ng per well and then exposed to a solution of each of the test antibodies at a fixed concentration of 10 μg/ml Anti-human or anti-mouse Ig-HRP polyclonal antibody conjugates (Jackson Laboratories) were used for detection of antibody binding. The results presented in FIG. 36 indicated eleven of the twelve antibodies tested in this assay to specifically bind APRIL with no measurable cross-reactivity with the other TNFSF members substantially above assay background.

[2] = target: T1, human FasL (TNFSF6, Adipogen) (human, UniProt P48023 103-281, limits assumed); experiment: indirect ELISA, cytokine coated
T1 sequence (looked up): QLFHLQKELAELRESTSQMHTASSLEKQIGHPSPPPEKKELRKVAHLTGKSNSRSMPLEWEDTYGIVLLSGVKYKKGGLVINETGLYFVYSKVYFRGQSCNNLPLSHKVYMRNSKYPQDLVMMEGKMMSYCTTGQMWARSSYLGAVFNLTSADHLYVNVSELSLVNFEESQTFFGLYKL
Protocol: as §1, §2

[3] = target: human TRAIL (TNFSF10, Adipogen) (human, UniProt P50591 95-281, limits assumed); experiment: indirect ELISA, cytokine coated
human TRAIL (TNFSF10, Adipogen), sequence (P50591 95-281 limits assumed): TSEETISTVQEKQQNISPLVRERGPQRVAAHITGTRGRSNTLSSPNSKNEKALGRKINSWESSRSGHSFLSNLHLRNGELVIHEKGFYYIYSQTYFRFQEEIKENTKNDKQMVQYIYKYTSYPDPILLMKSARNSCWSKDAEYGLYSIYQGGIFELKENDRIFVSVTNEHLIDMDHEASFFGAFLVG
Protocol: as §1, §2

[4] = target: T2, human RANKL (TNFSF11; Adipogen) (human, UniProt O14788 152-317, limits assumed); experiment: indirect ELISA, cytokine coated
T2 sequence (looked up): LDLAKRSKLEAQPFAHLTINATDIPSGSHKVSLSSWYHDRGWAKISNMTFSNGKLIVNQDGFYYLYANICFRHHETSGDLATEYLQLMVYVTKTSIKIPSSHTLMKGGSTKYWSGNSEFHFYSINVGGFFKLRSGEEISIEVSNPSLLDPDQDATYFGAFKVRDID
Protocol: as §1, §2

[5] = target: T3, human Tweak (TNFSF12; Abcam) (human, UniProt O43508 94-249, limits assumed); experiment: indirect ELISA, cytokine coated
T3 sequence (looked up): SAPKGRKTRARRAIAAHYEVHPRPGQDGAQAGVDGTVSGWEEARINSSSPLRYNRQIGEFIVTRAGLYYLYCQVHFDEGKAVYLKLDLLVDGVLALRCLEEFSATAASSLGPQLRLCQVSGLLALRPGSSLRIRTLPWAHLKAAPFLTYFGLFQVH
Protocol: as §1, §2

[6] = target: human BAFF (TNFSF13B, AB Biosciences) (human, UniProt Q9Y275 134-285, limits assumed); experiment: indirect ELISA, cytokine coated
Protocol: as §1, §2

[7] = target: mouse BAFF (TNFSF13B, Adipogen) (mouse, UniProt Q9WU72 127-309, limits assumed); experiment: indirect ELISA, cytokine coated
mouse BAFF (TNFSF13B, Adipogen), sequence (Q9WU72 127-309 limits assumed): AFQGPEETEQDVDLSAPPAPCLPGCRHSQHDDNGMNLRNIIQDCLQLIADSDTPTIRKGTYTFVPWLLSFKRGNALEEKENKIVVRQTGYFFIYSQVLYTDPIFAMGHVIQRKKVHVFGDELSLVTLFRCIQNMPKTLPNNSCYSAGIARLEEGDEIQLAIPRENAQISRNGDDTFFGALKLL
Protocol: as §1, §2

[8] = target: human LIGHT (TNFSF14, Adipogen) (human, UniProt O43557 89-240, limits assumed); experiment: indirect ELISA, cytokine coated
human LIGHT (TNFSF14, Adipogen), sequence (O43557 89-240 limits assumed): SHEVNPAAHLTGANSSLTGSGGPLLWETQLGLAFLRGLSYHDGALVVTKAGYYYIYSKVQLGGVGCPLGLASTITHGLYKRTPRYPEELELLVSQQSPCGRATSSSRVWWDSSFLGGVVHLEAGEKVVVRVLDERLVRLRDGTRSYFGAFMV
Protocol: as §1, §2

[9] = target: T4, human APRIL variant V181E (Homo sapiens, UniProt O75888); experiment: ELISA on the human APRIL variant V181E [panel V181E]
T4 construct: one of the variants grouped under m24
T4 sequence (APRIL monomer, looked up): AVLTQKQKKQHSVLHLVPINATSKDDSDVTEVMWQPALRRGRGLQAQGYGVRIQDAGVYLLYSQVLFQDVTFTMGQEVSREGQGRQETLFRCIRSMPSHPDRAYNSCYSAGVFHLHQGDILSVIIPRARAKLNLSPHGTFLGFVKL
Protocol: (§3) Antibody binding to human and mouse variants was assessed by ELISA. […] FLAG-tagged APRIL was captured from cell culture media using anti-FLAG antibody. The results are shown in FIGS. 23A-23B, 24A-24B, and 25A-25B. Differentiated epitope mapping of exemplary anti-APRIL antibodies was performed by site directed mutagenesis. Primary characterization of human APRIL binding site was carried out by site-directed mutagenesis of select amino acid positions within APRIL followed by evaluation of antibody binding to these variants by ELISA.

[10] = target: T5, HA-GCN4 hAPRIL (amino acid residues 105-250) (human, UniProt O75888 105-250); experiment: cell-based or functional assay
T5 sequence: T4 sequence (APRIL monomer, looked up) with E77V

[11] = target: T5, HA-GCN4 hAPRIL (amino acid residues …); experiment: blocking ELISA; blocked: human APRIL binding to BCMA-Fc
Protocol: Recombinant TACI-Fc or BCMA-Fc was coated on 96 well plates in 0.1 M carbonate-bicarbonate buffer (pH 9.6), overnight at 4° C. Plates were washed three times with 1×PBST (PBS+0.025% Tween 20) followed by blocking with 1% BSA in 1×PBS, 37° C. for 1 hour. All subsequent wash steps were carried out with 1×PBST. To assess antibody blocking, either 15 ng/mL or 50 ng/mL HA-GCN4-huAPRIL was preincubated with varying antibody concentrations ranging from 0.03-30 μg/mL in binding buffer comprised of 1% BSA and 0.025% Tween-20 in 1×PBS. Preincubation was carried out at 30° C. for 1 hour with mixing. Antibody-APRIL premix with 50 ng/mL APRIL or 15 ng/mL APRIL was then added to TACI-Fc coated or BCMA-Fc coated plates, respectively, and incubated for an additional hour at 30° C. HA-tagged APRIL binding to either receptor was quantified using a goat polyclonal anti-HA tag-HRP antibody (Abcam) added at a 1:10000 dilution followed by colorimetric development using 100 μl/well of freshly prepared TMB substrate (KPL) carried out for up to 30 minutes at room temperature before quenching enzymatic reaction by the addition of 1N sulfuric acid. ELISA signal was quantified by absorbance at 450 nm. ELISA data was analyzed by non-linear regression. IC₅₀ values were calculated based on a 4 parameter fit of antibody titration curves. […] Non-blocking antibodies Aprly-1 or Aprly-5 (Enzo Biosciences) were used as negative controls. Mouse specific, blocking antibody aprily-1-1 (Adipogen) was generally used as a positive control in experiments using mouse APRIL (HA-GCN4-mAPRIL).
Assay is based on receptor blocking ELISA using recombinant human APRIL (R&D Systems) and either human TACI-Fc (FIG. 30A) or BCMA-Fc (FIG. 30B).

[12] = target: T5, HA-GCN4 hAPRIL (amino acid residues …); experiment: blocking ELISA; blocked: human APRIL binding to TACI-Fc
[13] = target: T5, HA-GCN4 hAPRIL (amino acid residues …); experiment: indirect ELISA on human APRIL; row printed 4504-063, legend paragraph 738 says 4540-063
[14] = target: T6, HA-GCN4 mAPRIL (amino acid residues 96-241) (mouse, UniProt Q9D777 96-241, Assembles as a homotrimer through the GCN4 zipper; one protomer is given.); experiment: indirect ELISA on mouse APRIL; row printed 4504-063, legend paragraph 738 says 4540-063
T6 construct: Bought (R&D Systems); also called HA-tagged mouse APRIL (R&D Systems); recombinant mouse APRIL; not shown: N-terminal HA tag and GCN4 isoleucine-zipper trimerisation domain, with any linker, of the bought R&D Systems protein
T6 sequence: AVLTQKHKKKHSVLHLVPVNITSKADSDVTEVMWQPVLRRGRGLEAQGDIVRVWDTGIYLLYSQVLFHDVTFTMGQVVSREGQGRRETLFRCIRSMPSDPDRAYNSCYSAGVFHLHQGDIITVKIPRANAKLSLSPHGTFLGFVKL

[15] = target: T7, pur. muAPRIL (Mus musculus, UniProt Q9D777); experiment: ELISA, purified APRIL control
T7 sequence (APRIL monomer, looked up): T6 sequence
Protocol: as §3

[16] = target: T8, FLAG-tagged mouse APRIL (WT muAPRIL and muAPRIL Mutants) (Mus musculus, UniProt Q9D777); experiment: ELISA, FLAG-APRIL captured with anti-FLAG antibody
T8 sequence (APRIL monomer, looked up): T6 sequence
Protocol: as §3

human TNFα (TNFSF2; Adipogen), sequence (P01375 85-233 limits assumed): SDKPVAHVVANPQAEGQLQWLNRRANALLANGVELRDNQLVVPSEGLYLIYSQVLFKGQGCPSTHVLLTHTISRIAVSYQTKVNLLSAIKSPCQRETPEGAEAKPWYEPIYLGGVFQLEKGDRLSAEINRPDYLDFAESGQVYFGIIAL

binding result [1]: no binding (tested: 10 µg/ml (p-1128))
binding result [2]: no binding (tested: 10 µg/ml (p-1128))
binding result [3]: no binding (tested: 10 µg/ml (p-1128))
binding result [4]: no binding (tested: 10 µg/ml (p-1128))
binding result [5]: no binding (tested: 10 µg/ml (p-1128))
binding result [6]: no binding (tested: 10 µg/ml (p-1128))
binding result [7]: no binding (tested: 10 µg/ml (p-1128))
binding result [8]: no binding (tested: 10 µg/ml (p-1128))
binding result [9]: binds
B1: monoclonal antibody 2419 (antibody, V domains shown)
VH: QVQLQQSGAELVKPGASVRLSCEASGYTFTDYTIHWVKQRSGQGLEWIGWIYPLRGSINYNEKFKDKATLTADKSSSTVYLELGRLTSKDSAVYFCARHGAYYSNAFDYWGQGTTLTVSS
VL: NIVMTQSPASLAVSLGQRATISCRASESVDNDGIRFMHWYQQKPGQPPKLLIYRASNLESGIPARFSGSGSRTDFTLTINPVETDDVATYYCQQSNKDPYTFGGGTKLELK

IC50 (inhibition of APRIL-mediated BCMA NFκB signaling) [10]: ~1.04 nM
IC50 (inhibition of APRIL-mediated TACI NFκB signaling) [10]: ~7.19 nM
IC50 [11]: 1.92 nM
Relative Activity (normalised to 2419) [11]: 8.11
IC50 [12]: 0.67 nM
Relative Activity (normalised to 2419) [12]: 2.43
EC50 [13]: 0.00206 nM
EC50 [14]: 0.00156 nM
B2: monoclonal antibody 4540-063 (antibody, IgG1, V domains shown)
VH: QVQLVQSGAELKKPGASVKVSCKASGYTFADYYMNWVRQAPGQGLEWMGWIFPGSGSTYYNQKFQGRVTMTVDKSSSTAYMELSRLRSDDTAVYYCARGDSGRAMDYWGQGTLVTVSS
VL: DIQMTQSPSSLSASVGDRVTITCQASQDINKYLAWYQHKPGKAPKLLIHYTSTLETGVPSRFSGSGSGTDFTFTISSLQPEDIATYYCLQYDNLLTFGGGTKVEIK

binding result [15]: no binding
binding result [1]: no binding (tested: 10 µg/ml (p-1128))
binding result [2]: no binding (tested: 10 µg/ml (p-1128))
binding result [3]: no binding (tested: 10 µg/ml (p-1128))
binding result [4]: no binding (tested: 10 µg/ml (p-1128))
binding result [5]: no binding (tested: 10 µg/ml (p-1128))
binding result [6]: no binding (tested: 10 µg/ml (p-1128))
binding result [7]: no binding (tested: 10 µg/ml (p-1128))
binding result [8]: no binding (tested: 10 µg/ml (p-1128))
binding result [16]: no binding
B3: monoclonal antibody 4035 (antibody, V domains shown)
VH: QVQLKESGPGLVAPSQSLSITCTVSGFSLTIYDVHWVRQSPGKGLEWLGVIWSDGSTDYNAAFISRLSISKDNSKSQVFFKMNSLQADDTAIYYCARNWVDQAWFAYWGQGTLVTVSA
VL: DIQMTQSPASLSASVGETITITCRASKNIYSYLAWYQQKQGKSPQLLVYNAKTLPEGVPSRFSGSGSGTQFSLKINSLQPEDFGSYYCQHHYGTPLTFGAGTKLELK
notes: mouse-derived
